Earlier results in article PMC3240149.
pKi: −log10 of the molar value.

How the values were obtained:
[1] = molecular target: MMP-2 (Homo sapiens) (UniProt P08253)
[2] = molecular target: MMP-3 (Homo sapiens) (UniProt P08254)
[3] = molecular target: TACE (ADAM-17) (Homo sapiens) (UniProt P78536)
Sequence of UniProt P78536 (P78536 215-671): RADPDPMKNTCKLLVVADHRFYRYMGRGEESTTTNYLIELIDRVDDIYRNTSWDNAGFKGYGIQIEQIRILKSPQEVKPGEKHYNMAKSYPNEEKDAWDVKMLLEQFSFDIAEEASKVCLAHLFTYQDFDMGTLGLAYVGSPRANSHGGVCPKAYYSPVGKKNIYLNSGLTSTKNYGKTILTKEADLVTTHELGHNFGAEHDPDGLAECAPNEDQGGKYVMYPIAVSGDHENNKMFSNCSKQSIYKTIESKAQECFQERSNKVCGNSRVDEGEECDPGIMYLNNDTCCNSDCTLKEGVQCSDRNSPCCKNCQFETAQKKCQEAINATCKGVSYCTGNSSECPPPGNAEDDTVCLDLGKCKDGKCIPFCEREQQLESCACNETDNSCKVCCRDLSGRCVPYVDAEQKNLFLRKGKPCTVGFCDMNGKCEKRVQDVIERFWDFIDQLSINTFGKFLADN

Sequence of UniProt P08253 (P08253 110-660): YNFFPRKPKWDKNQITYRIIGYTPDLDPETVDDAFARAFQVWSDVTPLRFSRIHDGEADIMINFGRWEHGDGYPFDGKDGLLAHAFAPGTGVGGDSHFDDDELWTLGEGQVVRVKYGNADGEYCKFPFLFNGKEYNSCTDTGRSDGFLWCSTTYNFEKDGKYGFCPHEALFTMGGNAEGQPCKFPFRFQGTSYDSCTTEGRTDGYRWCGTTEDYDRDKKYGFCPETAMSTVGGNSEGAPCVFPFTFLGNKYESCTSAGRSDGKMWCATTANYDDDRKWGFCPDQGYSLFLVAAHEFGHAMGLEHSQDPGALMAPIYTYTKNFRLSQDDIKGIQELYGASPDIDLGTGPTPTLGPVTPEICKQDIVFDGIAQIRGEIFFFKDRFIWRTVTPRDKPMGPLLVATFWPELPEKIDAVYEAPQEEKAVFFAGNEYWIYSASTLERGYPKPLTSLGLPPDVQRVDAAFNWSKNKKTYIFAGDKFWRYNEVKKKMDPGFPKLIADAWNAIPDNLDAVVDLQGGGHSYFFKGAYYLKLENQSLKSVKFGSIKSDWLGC
Sequence of UniProt P08254 (P08254 100-477): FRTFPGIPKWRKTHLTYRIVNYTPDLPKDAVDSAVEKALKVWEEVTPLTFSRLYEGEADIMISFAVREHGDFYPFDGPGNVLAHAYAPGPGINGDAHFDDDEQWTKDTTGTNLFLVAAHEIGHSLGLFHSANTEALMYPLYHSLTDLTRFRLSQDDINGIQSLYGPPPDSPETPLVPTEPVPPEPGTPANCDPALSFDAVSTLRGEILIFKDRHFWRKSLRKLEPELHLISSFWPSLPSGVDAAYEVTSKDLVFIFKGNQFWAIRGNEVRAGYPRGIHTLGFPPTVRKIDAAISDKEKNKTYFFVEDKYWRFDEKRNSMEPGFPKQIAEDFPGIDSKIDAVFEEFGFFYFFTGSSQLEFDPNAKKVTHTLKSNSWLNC

pKi [1] | Substance | pKi [2] | pKi [3]
6.00 | TIMP-2 (from UniProt P16035) |  | 
 | TIMP-3 (from UniProt P35625) | 7.17 | 9.74
